Reference: article PMC5685557 (Structure (London, England : 1993), 2017)
Numbering of substitutions follows the chain as printed. Names and notes keep the numbering of the source. Values joined by “and” are separate entries in the source; they are usually repeats but may differ in a detail not shown here. Identical values can stand only once.

B1: myocilin N-terminal domain construct NTD_(33-226), wild type (domain or fragment, human, UniProt Q99972 33-226, looked up)
chain: RTAQLRKANDQSGRCQYTFSVASPNESSCPEQSQAMSVIHNLQRDSSTQRLDLEATKARLSSLESLLHQLTLDQAARPQETQEGLQRELGTLRRERDQLETQTRELETAYSNLLRDKSVLEEEKKRLRQENENLARRLESSSQEVARLRRGQCPQTRDTARAVPPGSREVSTWNLDTLAFQELKSELTEVPASR
B2: NTD_(33-226) (C47S/C61S/C185S) (domain or fragment, human, UniProt Q99972 33-226, looked up)
chain: B1 chain with C15S, C29S, C153S
B3: myocilin coiled-coil construct CC_(60-185) (domain or fragment, human, UniProt Q99972 60-185, looked up)
chain: SCPEQSQAMSVIHNLQRDSSTQRLDLEATKARLSSLESLLHQLTLDQAARPQETQEGLQRELGTLRRERDQLETQTRELETAYSNLLRDKSVLEEEKKRLRQENENLARRLESSSQEVARLRRGQC
B4: myocilin coiled-coil construct CC_(69-184) (domain or fragment, human, UniProt Q99972 69-184, looked up)
chain: SVIHNLQRDSSTQRLDLEATKARLSSLESLLHQLTLDQAARPQETQEGLQRELGTLRRERDQLETQTRELETAYSNLLRDKSVLEEEKKRLRQENENLARRLESSSQEVARLRRGQ
B5: myocilin coiled-coil construct CC_(69-185) (domain or fragment, human, UniProt Q99972 69-185, looked up)
chain: SVIHNLQRDSSTQRLDLEATKARLSSLESLLHQLTLDQAARPQETQEGLQRELGTLRRERDQLETQTRELETAYSNLLRDKSVLEEEKKRLRQENENLARRLESSSQEVARLRRGQC
B6: myocilin construct CC_(33-111) (domain or fragment, human, UniProt Q99972 33-111, looked up)
chain: RTAQLRKANDQSGRCQYTFSVASPNESSCPEQSQAMSVIHNLQRDSSTQRLDLEATKARLSSLESLLHQLTLDQAARPQ
B7: myocilin coiled-coil construct CC_(112-185) (domain or fragment, human, UniProt Q99972 112-185, looked up)
chain: ETQEGLQRELGTLRRERDQLETQTRELETAYSNLLRDKSVLEEEKKRLRQENENLARRLESSSQEVARLRRGQC
B8: mouse myocilin leucine zipper construct mLZ_(93-171) (domain or fragment, UniProt O70624 93-171, looked up)
chain: VTGTQEAQEGLQGQLGALRRERDQLETQTRDLEAAYNNLLRDKSALEEEKRQLEQENEDLARRLESSSEEVTRLRRGQC

Assays:
non-reducing SDS-PAGE = target: the molecule itself; experiment: non-reducing SDS-PAGE
cross-linking = target: the molecule itself; experiment: cross-linking
SEC [1] = target: the molecule itself; experiment: SEC
SEC-SAXS = target: the molecule itself; experiment: SEC-SAXS
SEC [2] = target: the molecule itself; experiment: SEC; remark: listed apart in the source

Row | Protein | stoichiometry N (non-reducing SDS-PAGE) | stoichiometry N (cross-linking) | binding result (SEC [1]) | stoichiometry N (SEC-SAXS) | stoichiometry N (SEC [2])
1 | B1 | ~8 | 2 and 4 |  |  | 
2 | B2 |  |  | binds |  | 
3 | B3 |  |  |  | 4.9 | 
4 | B4 |  |  |  |  | 4
5 | B5 | 2 | 4 |  | 3.6 | 
6 | B6 |  | 2 |  | 2.8 | 4
7 | B7 |  |  |  | 2.4 | 2
8 | B8 |  |  |  | 2.2 | 
